Tests used:
human recombinant IL-8 [1] = biological target: T1, human recombinant IL-8 (human, UniProt P10145 28-99); assay: BIAcore SPR, IL-8 immobilized (81 RU surface), hybridoma supernatant as analyte
T1 construct: also called hIL8; h-IL-8
T1 sequence (looked up): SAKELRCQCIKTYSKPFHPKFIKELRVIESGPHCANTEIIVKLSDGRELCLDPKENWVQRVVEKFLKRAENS

human recombinant IL-8 [2] = biological target: T1, human recombinant IL-8; assay: BIAcore SPR, IL-8 immobilized (134 RU surface), hybridoma supernatant as analyte

Kd (human recombinant IL-8 [1]): 0.142 nM | koff (human recombinant IL-8 [1]): 0.000817 s⁻¹ | kon (human recombinant IL-8 [1]): 5.76e+06 M⁻¹ s⁻¹ | Kd (human recombinant IL-8 [2]): 0.196 nM | koff (human recombinant IL-8 [2]): 0.000384 s⁻¹ | kon (human recombinant IL-8 [2]): 1.95e+06 M⁻¹ s⁻¹
B1: I8K4.2 (antibody, V domains shown)
VH: SLTCAVYGGSFSGYYWTWIRQPPGKGLEWIGEIIHHGNTNYNPSLKSRVSISVDTSKNQFSLTLSSVTAADTAVYYCARGGAVAAFDYWGQGTLVTVSS
VL: TQSPSSLSASVGDRVTITCQASQDISNYLNWYQQKAGKAPKVLIYAASNLEAGVPSRFSGSGSGTDFTFTISSLQPEDIATYYCQHYDNLLTFGGGTKVEIKR
